Data from US20250376535A1 (BEIJING STARMAB BIOMED TECHNOLOGY, published 2025).

B1: 4-1BB-9 (VHH, not shown: small tags and cut ends)
VHH: QVQLVESGGGLVQAGGSLRLSCAASGSIFSYNAVAWYRQAPGKQRELVAVITSGGETTKYADSVKGRFTISRDITKNAVDLQMVSLKPEDTAVYTCAALRNSGSTSWGQGTQVTVSS
B2: pgEG-SX3 (VHH, not shown: small tags and cut ends)
VHH: QVQLVESGGGLVQAGGSLRLSCVVYGSIFASTTMGWYRQAPGKQRELVATVYQSGTSVYADSVKGRFTASRDNAKKTVYLQMNSLKPEDTAVYYCHPRATDYWGRGTQVTVSS
B3: 4-1BB-36 (VHH, not shown: small tags and cut ends)
VHH: EVQLVESGGGLVQPGGSLRLSCAASRRTFSSYTAGWFRQAPGKEREFVASIRWISGTTTYADSVNGRFTISRDIAKNTVYLQMNSLKPDDTAVYYCAVDLSSDNDYDYWGQGTQVTVSS
B4: 4-1BB-3 (VHH, not shown: small tags and cut ends)
VHH: EVQLVESGGGLVQAGGSLRLSCAASGNIFSYNGMAWYRQAPGNQRELVAVVAIDGTAKYADTVKGRFTISRDNIKNTVNLEMNSLKPEDTAVYTCAALRNSGSTSWGQGTQVTVSS
B5: pgEG5 (VHH, not shown: small tags and cut ends)
VHH: QVQLVESGGGLVQPGGSLRLSCTASHNIFSDNAMAWSRQAPGAQRELVARIATGGNTYYPDSVKGRFTISRDNAKNTVYLQMNNLTPDDTAVYYCYAERWTGLEYSRTYWGQGTQVTVSS
B6: Humanized MSA4-1 (VHH)
VHH: EVQLVESGGGLVQPGGSLRLSCAASGRTDSAYRMGWFRQAPGKEREFVSAINWSDGRTVYLDSVKGRFTISRDNAKNTLYLQMNSLRAEDTAVYYCAADPDSRLYYTVPQNYDYWGQGTQVTVSS
notes: Humanization of MSA4 based on human germline IGHV3-23*04; also called hMSA4-1; not shown: His tag (BLI used HIS tagged MSA VHHs)
B7: 4-1BB-10 (VHH, not shown: small tags and cut ends)
VHH: EVQLVESGGGLVQAGGSLRLSCAASGAIFSYNGMAWYRQAPGKQREFVAVITPDGTTKYGDSVKGRFTISRDITKNTVDLEMNSLKPEDTAVYTCAALRNSGSTSWGQGTQVTVSS
B8: 4-1BB-56 (VHH, not shown: small tags and cut ends)
VHH: QVQLVESGGGLVQTGGSLRLSCAASGRISTIDTMFWYRQTPGKERDWVAFIPKDGLPTYVDSVKGRFTVSRDNARNTVYLQMNGLKPEDTAVYYCAVDVQEDRMRTYWGQGTQVTVSS

What was measured:
4-1BB Fc [1] = molecular target: T1, 4-1BB Fc (human, UniProt Q07011 24-183); experiment: ELISA, 4-1BB Fc coated, VHH at 5 nM
T1 construct: also called rh-41BB; 41BB-hFc
Method: (§1) After four rounds of washing with PBST, the plate was incubated with detecting antibody anti-his-HRP (1:4000 dilution) 100 μl per well for one hour with shaking at 60 rpm. The plate was developed with 100 μL of TMB per well in the dark and then stopped by 50 μL of stop solution per well. […] Data was analyzed using GraphPad Prisma 9.1.

4-1BB Fc [2] = molecular target: T1, 4-1BB Fc; experiment: ELISA, 4-1BB Fc coated, VHH at 50 nM
Method: as §1

4-1BB Fc [3] = molecular target: T1, 4-1BB Fc; experiment: ELISA, 4-1BB Fc coated, VHH at 0.5 nM
Method: as §1

4-1BB Fc [4] = molecular target: T1, 4-1BB Fc; experiment: ELISA, 4-1BB Fc coated, VHH at 500 nM
Method: as §1

4-1BB Fc [5] = molecular target: T1, 4-1BB Fc; experiment: ELISA, 4-1BB Fc coated, VHH at 0.05 nM
Method: as §1

4-1BB Fc [6] = molecular target: T1, 4-1BB Fc; experiment: ELISA, 4-1BB Fc coated, VHH at 0.005 nM
Method: as §1

4-1BB Fc [7] = molecular target: T1, 4-1BB Fc; experiment: ELISA, 4-1BB Fc coated, VHH at 0.0005 nM
Method: as §1

4-1BB Fc [8] = molecular target: T1, 4-1BB Fc; experiment: ELISA, 4-1BB Fc coated, VHH at 0.00005 nM
Method: as §1

Human 41BB antigen (BLI) = molecular target: T2, Human 41BB antigen (BLI) (human, UniProt Q07011 24-183); experiment: BLI, VHH-His on anti-His tips, human 41BB in solution;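 also: association tracked for 200 s, after which dissociation was followed in 1×PBS free of 41BB protein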
T2 construct: also called 41BB protein
Method: Tips were loaded using 20 μg/ml of anti-41BB VHH. Loading proceeded for 300 sec resulting in capture levels of between 1.8 and 2 nm. […] Association was initiated and monitored for 200 sec, after which tips were transferred to 1×PBS buffer without 41BB protein, in order to monitor dissociation.

EGFR Fc [9] = molecular target: T3, EGFR Fc (human, UniProt P00533 25-645); experiment: ELISA, EGFR Fc coated
T3 construct: also called EGFR-hFc; recombinant human EGFR-Fc
Method: as §1

[10] = molecular target: T4, EGFR (recombinant human, BLI antigen) (human, UniProt P00533 25-645); experiment: BLI (Octet) as in Example 1
T4 construct: also called rh-EGFR; human EGFR

EGFR Fc [11] = molecular target: T3, EGFR Fc; experiment: ELISA, EGFR Fc coated, VHH at 2 nM
Method: as §1

EGFR Fc [12] = molecular target: T3, EGFR Fc; experiment: ELISA, EGFR Fc coated, VHH at 10 nM
Method: as §1

EGFR Fc [13] = molecular target: T3, EGFR Fc; experiment: ELISA, EGFR Fc coated, VHH at 50 nM
Method: as §1

EGFR Fc [14] = molecular target: T3, EGFR Fc; experiment: ELISA, EGFR Fc coated, VHH at 0.4 nM
Method: as §1

EGFR Fc [15] = molecular target: T3, EGFR Fc; experiment: ELISA, EGFR Fc coated, VHH at 500 nM
Method: as §1

EGFR Fc [16] = molecular target: T3, EGFR Fc; experiment: ELISA, EGFR Fc coated, VHH at 0.08 nM
Method: as §1

EGFR Fc [17] = molecular target: T3, EGFR Fc; experiment: ELISA, EGFR Fc coated, VHH at 0.016 nM
Method: as §1

EGFR Fc [18] = molecular target: T3, EGFR Fc; experiment: ELISA, EGFR Fc coated, VHH at 0.0032 nM
Method: as §1

EGFR Fc [19] = molecular target: T3, EGFR Fc; experiment: blocking ELISA, EGFR-hFc + VHH at 0 nM on coated EGF-mFc
Method: (§2) After incubation at 4° C. overnight, the plate was washed four times of PBST and blocked with 200 μl per well of 2% BSA for one hour at room temperature. […] The plate was washed twice with PBST, and the pre-mixed samples were added to the 96-well plate shaking at 60 rpm for one hour at room temperature. After four washes of PBST, the plate was incubated with detecting antibody anti-his-HRP (1:4000 dilution) 100 μl per well for one hour with shaking at 60 rpm. The plate was washed with four times of PBST and added 100 μl per well of substrate TMB followed by 50 μl of stop solution.

EGFR Fc [20] = molecular target: T3, EGFR Fc; experiment: blocking ELISA, EGFR-hFc + VHH at 8 nM on coated EGF-mFc
Method: as §2

EGFR Fc [21] = molecular target: T3, EGFR Fc; experiment: blocking ELISA, EGFR-hFc + VHH at 40 nM on coated EGF-mFc
Method: as §2

EGFR Fc [22] = molecular target: T3, EGFR Fc; experiment: blocking ELISA, EGFR-hFc + VHH at 1.6 nM on coated EGF-mFc
Method: as §2

EGFR Fc [23] = molecular target: T3, EGFR Fc; experiment: blocking ELISA, EGFR-hFc + VHH at 200 nM on coated EGF-mFc
Method: as §2

EGFR Fc [24] = molecular target: T3, EGFR Fc; experiment: blocking ELISA, EGFR-hFc + VHH at 0.32 nM on coated EGF-mFc
Method: as §2

EGFR Fc [25] = molecular target: T3, EGFR Fc; experiment: blocking ELISA, EGFR-hFc + VHH at 1000 nM on coated EGF-mFc
Method: as §2

EGFR Fc [26] = molecular target: T3, EGFR Fc; experiment: blocking ELISA, EGFR-hFc + VHH at 0.064 nM on coated EGF-mFc
Method: as §2

[27] = molecular target: T4, EGFR (recombinant human, BLI antigen); experiment: BLI (Octet) as in Example 1; printed under the head Kdis(1/s), read as kon
[28] = molecular target: T4, EGFR (recombinant human, BLI antigen); experiment: BLI (Octet) as in Example 1; printed under the head Kon(1/Ms), read as koff
human serum albumin = molecular target: T5, human serum albumin (human, UniProt P02768 25-609); experiment: BLI (Gator), His-tagged VHH on anti-His sensor, HSA 100 nM in solution
T5 construct: also called HSA
Method: (§3) Kinetic binding analysis of MSA VHHs were performed with Gator Prime system equipped with analyze software. […] The experiments were done at 30° C. Prior to analysis, sensors were socked in Q buffer for 600 sec with shaking at 1000 rpm, and then 2 μM of HIS tagged MSA VHHs were loaded to Anti-His sensors with shaking at 400 rpm for 120 sec. Loaded sensors were transferred into Q buffer for 60 sec. Association of HSA or MSA at 100 nM was initiated and monitored for 120-180 sec with shaking at 1000 rpm, and finally dissociation in Q buffer for 120-180 sec with 1000 rpm shaking. Software V2.0 (Gator Bio) was used for data analysis. The on-rate (Kₒₙ) and off-rate (Kd) were determined by fitting of the association and dissociation phases of each sample. The mathematical model used assumes a 1:1 stoichiometry, fitting only one analyte in solution binding to one binding site on the surface. The equilibrium dissociation constant (KD), a measure for affinity, was then calculated as the ratio of Kd and Kₒₙ.

murine serum albumin = molecular target: T6, murine serum albumin (murine, UniProt P07724 25-608); experiment: BLI (Gator), His-tagged VHH on anti-His sensor, murine serum albumin 100 nM in solution
T6 construct: As antigen 'MSA' means murine serum albumin; the VHHs also carry the label MSA; also called MSA
Method: as §3

T2 sequence (Q07011 24-183 limits assumed): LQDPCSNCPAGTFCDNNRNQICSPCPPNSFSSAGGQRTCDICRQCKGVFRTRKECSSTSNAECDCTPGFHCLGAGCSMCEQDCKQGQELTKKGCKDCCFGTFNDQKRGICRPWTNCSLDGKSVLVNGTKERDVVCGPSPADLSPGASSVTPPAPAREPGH
T1 sequence (Q07011 24-183): as the sequence (Q07011 24-183 limits assumed) above

Binder | OD450 (4-1BB Fc [1]) | OD450 (4-1BB Fc [2]) | OD450 (4-1BB Fc [3]) | OD450 (4-1BB Fc [4]) | OD450 (4-1BB Fc [5]) | OD450 (4-1BB Fc [6]) | OD450 (4-1BB Fc [7]) | OD450 (4-1BB Fc [8]) | Kd (Human 41BB antigen (BLI)) [nM] | koff (Human 41BB antigen (BLI)) [s⁻¹] | kon (Human 41BB antigen (BLI)) [M⁻¹ s⁻¹] | also measured
B1 | 0.084 | 0.292 | 0.061 | 0.264 | 0.065 | 0.064 | 0.067 | 0.07 | 4.55 | 0.00276 | 606000 | –
B2 | – | – | – | – | – | – | – | – | – | – | – | EC50 (EGFR Fc [9]): 0.382 nM; Kd [10]: 0.602 nM; OD450 (EGFR Fc [11]): 0.843; OD450 (EGFR Fc [12]): 0.994; OD450 (EGFR Fc [13]): 1.21; OD450 (EGFR Fc [14]): 0.762; OD450 (EGFR Fc [15]): 1.47; OD450 (EGFR Fc [16]): 0.373; OD450 (EGFR Fc [17]): 0.134; OD450 (EGFR Fc [18]): 0.086; OD450 (EGFR Fc [19]): 1.06; OD450 (EGFR Fc [20]): 0.562; OD450 (EGFR Fc [21]): 0.482; OD450 (EGFR Fc [22]): 0.723; OD450 (EGFR Fc [23]): 0.382; OD450 (EGFR Fc [24]): 0.806; OD450 (EGFR Fc [25]): 0.336; OD450 (EGFR Fc [26]): 0.979; kon [27]: 457000 M⁻¹ s⁻¹; koff [28]: 0.000275 s⁻¹
B3 | 1.35 | 3.19 | 0.202 | 4.25 | 0.078 | 0.068 | 0.071 | 0.073 | 29.2 | 0.00919 | 314000 | –
B4 | 0.089 | 0.183 | 0.065 | 0.165 | 0.06 | 0.067 | 0.062 | 0.066 | 1.82 | 0.00129 | 708000 | –
B5 | – | – | – | – | – | – | – | – | – | – | – | EC50 (EGFR Fc [9]): 0.426 nM; Kd [10]: 10.8 nM; koff [10]: 0.00134 s⁻¹; kon [10]: 124000 M⁻¹ s⁻¹; OD450 (EGFR Fc [11]): 2.23; OD450 (EGFR Fc [12]): 2.35; OD450 (EGFR Fc [13]): 2.33; OD450 (EGFR Fc [14]): 1.2; OD450 (EGFR Fc [15]): 2.52; OD450 (EGFR Fc [16]): 0.34; OD450 (EGFR Fc [17]): 0.147; OD450 (EGFR Fc [18]): 0.119; OD450 (EGFR Fc [19]): 1.2; OD450 (EGFR Fc [20]): 1.07; OD450 (EGFR Fc [21]): 1.11; OD450 (EGFR Fc [22]): 1.18; OD450 (EGFR Fc [23]): 1.2; OD450 (EGFR Fc [24]): 1.16; OD450 (EGFR Fc [25]): 1.22; OD450 (EGFR Fc [26]): 1.15
B6 | – | – | – | – | – | – | – | – | – | – | – | Kd (human serum albumin): 5.38 nM; koff (human serum albumin): 0.000545 s⁻¹; kon (human serum albumin): 101000 M⁻¹ s⁻¹; Kd (murine serum albumin): 5.58 nM; koff (murine serum albumin): 0.000678 s⁻¹; kon (murine serum albumin): 121000 M⁻¹ s⁻¹
B7 | 0.828 | 1.76 | 0.11 | 1.58 | 0.065 | 0.066 | 0.068 | 0.068 | 0.657 | 0.000539 | 820000 | –
B8 | 2.89 | 3.08 | 1.69 | 2.7 | 0.397 | 0.203 | 0.181 | 0.129 | 0.781 | 0.000552 | 707000 | –
